Results: patent US10774129B2, “Complexes of types of MHC class II that bind to collagen type II peptides and their use on diagnosis and treatment” (FRAUNHOFER-GESELLSCHAFT ZUR FÖRDERUNG DER ANGEWANDTEN …, priority 2011, dated 2020)
Square brackets hold non-standard residues; d marks the D form. Ends that are not written are not given here. Cit = NC(=O)NCCC[C@H](N)C(=O)O

How the values were obtained:
Experiment in all cases: in vitro binding assay to recombinant MHC class II protein
[1] = biological target: MHC class II of the HLA DRB1 0401 genotype (Homo sapiens, UniProt P01903+P01911, A100K/A169T/F76Y/I96L/K127E/L162R/M171V/N62H/P40V/Q125Y/R42H/S133A/S149N/S66Y/V115G/V209L/W38E); set-up: key to Binds to 0401: *0101: the listing of the allele in the column for the allele indicates binding; *0401: “0401” in the “Binds to 0401” column indicates binding of the peptide to MHC class II of the HLA DRB1 0401 genotype; *0404: the listing of the allele in the column for the allele indicates binding; *0405: the listing of the allele in the column for the allele indicates binding; *0408: the listing of the allele in the column for the allele indicates binding; *1001: the listing of the allele in the column for the allele indicates binding; “no” or no data indicates no binding to a protein of that genotype; settings: recombinant MHC class II, HLA DRB1 0401
Description: (§1) Binding of the peptides to recombinant MHC class II protein of various alleles has been confirmed in an in vitro binding assay and the results are shown in Tables 1, 2 and 3. In table 1, 2 and 3, the listing of the allele in the column for the allele indicates binding. Thus “0401” in the “Binds to 0401” column indicates binding of the peptide to MHC class II of the HLA DRB1 0401 genotype. “no” or no data indicates no binding to a protein of that genotype. Empty boxes indicate no binding or that binding has not been determined. In the tables it is also indicated if the peptide has a citrulline residue, where “yes” indicates the presence of a citrulline residue and “no” indicates the absence of a citrulline residue.
Thus for these peptides no binding to HLA-DR0401 was observed when citrulline was exchanged with the original amino acid arginine (Table 4). No binding of the citrullinated peptides was seen to HLA-DR 03 or 02 variants.

[2] = system: MHC class II of the HLA DRB1 0408 genotype; set-up: species or system human; key: *0101: the listing of the allele in the column for the allele indicates binding; *0401: “0401” in the “Binds to 0401” column indicates binding of the peptide to MHC class II of the HLA DRB1 0401 genotype; *0404: the listing of the allele in the column for the allele indicates binding; *0405: the listing of the allele in the column for the allele indicates binding; *0408: the listing of the allele in the column for the allele indicates binding; *1001: the listing of the allele in the column for the allele indicates binding; “no” or no data indicates no binding to a protein of that genotype
Description: as §1

[3] = system: MHC class II of the HLA DRB1 1001 genotype; set-up: species or system human; key to Binds to 1001: *0101: the listing of the allele in the column for the allele indicates binding; *0401: “0401” in the “Binds to 0401” column indicates binding of the peptide to MHC class II of the HLA DRB1 0401 genotype; *0404: the listing of the allele in the column for the allele indicates binding; *0405: the listing of the allele in the column for the allele indicates binding; *0408: the listing of the allele in the column for the allele indicates binding; *1001: the listing of the allele in the column for the allele indicates binding; “no” or no data indicates no binding to a protein of that genotype; settings: recombinant MHC class II, HLA DRB1 1001
Description: as §1

[4] = biological target: MHC class II of the HLA DRB1 0405 genotype (Homo sapiens, UniProt P01903+P01911, A100R/A169T/D86S/F76Y/I96L/K127E/L162R/M171V/N62H/P40V/Q125Y/R42H/S133A/S149N/S66Y/V115G/V209L/W38E); set-up: key: *0101: the listing of the allele in the column for the allele indicates binding; *0401: “0401” in the “Binds to 0401” column indicates binding of the peptide to MHC class II of the HLA DRB1 0401 genotype; *0404: the listing of the allele in the column for the allele indicates binding; *0405: the listing of the allele in the column for the allele indicates binding; *0408: the listing of the allele in the column for the allele indicates binding; *1001: the listing of the allele in the column for the allele indicates binding; “no” or no data indicates no binding to a protein of that genotype
Description: as §1

[5] = biological target: MHC class II of the HLA DRB1 0404 genotype (Homo sapiens, UniProt P01903+P01911, A100R/A169T/F76Y/I96L/K127E/L162R/M171V/N62H/P40V/Q125Y/R42H/S133A/S149N/S66Y/V209L/W38E); set-up: key: *0101: the listing of the allele in the column for the allele indicates binding; *0401: “0401” in the “Binds to 0401” column indicates binding of the peptide to MHC class II of the HLA DRB1 0401 genotype; *0404: the listing of the allele in the column for the allele indicates binding; *0405: the listing of the allele in the column for the allele indicates binding; *0408: the listing of the allele in the column for the allele indicates binding; *1001: the listing of the allele in the column for the allele indicates binding; “no” or no data indicates no binding to a protein of that genotype
Description: as §1

[6] = biological target: MHC class II of the HLA DRB1 0101 genotype (Homo sapiens, UniProt P01903+P01911, A100R/D57E/F55L/F60I/F76Y/I96L/L162R/M171V/P40L/Q125E/R42F/V115G/Y59C); set-up: key: *0101: the listing of the allele in the column for the allele indicates binding; *0401: “0401” in the “Binds to 0401” column indicates binding of the peptide to MHC class II of the HLA DRB1 0401 genotype; *0404: the listing of the allele in the column for the allele indicates binding; *0405: the listing of the allele in the column for the allele indicates binding; *0408: the listing of the allele in the column for the allele indicates binding; *1001: the listing of the allele in the column for the allele indicates binding; “no” or no data indicates no binding to a protein of that genotype
Description: as §1

Row | Substance | Binds to 0401 [1] | Binds to 0408 [2] | Binds to 1001 [3] | Binds to 0405 [4] | Binds to 0404 [5] | Binds to 0101 [6]
1 | a-enolase 57: human alpha-enolase peptide, not citrullinated (KSFIKDYPVVSIEDP; listed as Homo sapiens) | *0401 | *0408 | *1001 | *0405 | *0404 | *0101
2 | vimentin 1: human vimentin peptide, not citrullinated (MSTRSVSSSSYRRMF; listed as Homo sapiens) | *0401 |  |  | no | *0404 | *0101
3 | vimentin 166: citrullinated human vimentin peptide (THSK[Cit]TLLIKTVET[Cit]; listed as Homo sapiens) | no |  |  | no | *0404 | no
4 | vimentin 77: human vimentin peptide, not citrullinated (REYQDLLNVKMALDI; listed as Homo sapiens) |  |  |  | *0405 |  | *0101
5 | vimentin 3: human vimentin peptide, not citrullinated (YRRMFGGPGTASRPS; listed as Homo sapiens) | *0401 |  |  | *0405 | *0404 | *0101
6 | vimentin 106: citrullinated human vimentin peptide (SAV[Cit]L[Cit]SSVPGV[Cit]LL; listed as Homo sapiens) | *0401 |  |  | *0405 | *0404 | *0101
7 | type II collagen 263: human collagen type II peptide, not citrullinated (GDRGEAGAQGPMGPS; listed as Homo sapiens) |  |  | *1001 |  |  | 
8 | vimentin 81: human vimentin peptide, not citrullinated (RKLLEGEESRISLPL; listed as Homo sapiens) | *0401 |  |  | no | no | no
9 | vimentin 117: citrullinated human vimentin peptide (LLAELEQLKGQGKS[Cit]; listed as Homo sapiens) |  |  |  | no | No | *0101
10 | type II collagen 411: citrullinated human collagen type II peptide (GIVGLPGQ[Cit]GE[Cit]GFP; listed as Homo sapiens) | *0401 |  |  | *0405 | *0404 | 
11 | type II collagen 268: human collagen type II peptide, not citrullinated (PQGPRGDKGEAGEPG; listed as Homo sapiens) |  |  | *1001 |  |  | 
12 | vimentin 105: citrullinated human vimentin peptide (YAT[Cit]SSAV[Cit]L[Cit]SSVP; listed as Homo sapiens) | *0401 |  |  | no | no | *0101
13 | type II collagen 332: citrullinated human collagen type II peptide ([Cit]GPPGPQGA[Cit]GFPGT; listed as Homo sapiens) | *0401 |  |  | *0405 | *0404 | 

Results, then the substance that gave them:

Row | Binds to 0401 [1] | Binds to 0408 [2] | Binds to 1001 [3] | Binds to 0405 [4] | Binds to 0404 [5] | Binds to 0101 [6] | Substance
14 | *0401 |  |  | *0405 | *0404 | *0101 | type II collagen 242: human collagen type II peptide, not citrullinated (GIVGLPGQRGERGFP; listed as Homo sapiens)
15 | *0401 |  |  | *0405 |  | *0101 | vimentin 64: human vimentin peptide, not citrullinated (STEYRRQVQSLTCEV; listed as Homo sapiens)
16 | *0401 |  |  | no | *0404 | no | vimentin 33: human vimentin peptide, not citrullinated (VDQLTNDKARVEVER; listed as Homo sapiens)
17 |  |  | *1001 |  |  |  | type II collagen 362: citrullinated human collagen type II peptide (PKGANGDPG[Cit]PGEPG; listed as Homo sapiens)
18 | *0401 |  |  | no |  | no | vimentin 34: human vimentin peptide, not citrullinated (NDKARVEVERDNLAE; listed as Homo sapiens)
19 | *0401 |  |  | no | *0404 | *0101 | vimentin 104: citrullinated human vimentin peptide (SPGGVYAT[Cit]SSAV[Cit]L; listed as Homo sapiens)
20 | *0401 |  |  | no | No | *0101 | vimentin 111: citrullinated human vimentin peptide (FKNT[Cit]TNEKVELQEL; listed as Homo sapiens)
21 | *0401 |  |  | no | No | no | vimentin 133: citrullinated human vimentin peptide (DNASLA[Cit]LDLE[Cit]KVE; listed as Homo sapiens)
22 |  | *0408 | *1001 |  |  |  | type II collagen 384: citrullinated human collagen type II peptide (QGP[Cit]GLPGTPGTDGP; listed as Homo sapiens)
23 | *0401 |  |  | no | no | no | vimentin 108: citrullinated human vimentin peptide (GVXLLQDSVDFSLAD; citrullinated; MOD_RES (3)..(3) Citrulline; listed as Homo sapiens)
